Measurements reported in article PMC8287830, “(S)-3-Hydroxybutyryl-CoA Dehydrogenase From the Autotrophic 3-Hydroxypropionate/4-Hydroxybutyrate Cycle in Nitrosopumilus maritimus” (Frontiers in Microbiology, 2021).

Legend:
[1] = substrate: CC(=O)CC(=O)SCCNC(=O)CCNC(=O)[C@H](O)C(C)(C)COP(=O)(O)OP(=O)(O)OC[C@H]1O[C@@H](n2cnc3c(N)ncnc32)[C@H](O)[C@@H]1OP(=O)(O)O; experiment: purified protein; type: biochemical, Nitrosopumilus maritimus; details: 0.5 mM NADH, 100 mM Tris-HCl pH 7.8, 30°C, reverse reaction, monomeric enzyme
[2] = substrate: C[C@H](O)CC(=O)SCCNC(=O)CCNC(=O)[C@H](O)C(C)(C)COP(=O)(O)OP(=O)(O)OC[C@H]1O[C@@H](n2cnc3c(N)ncnc32)[C@H](O)[C@@H]1OP(=O)(O)O; experiment: purified protein; type: biochemical, Nitrosopumilus maritimus; details: 2 mM NAD, 100 mM Tris-HCl pH 7.8, 30°C, forward reaction, monomeric enzyme
[3] = substrate: NC(=O)C1=CN([C@@H]2O[C@H](COP(=O)(O)OP(=O)(O)OC[C@H]3O[C@@H](n4cnc5c(N)ncnc54)[C@H](O)[C@@H]3O)[C@@H](O)[C@H]2O)C=CC1; experiment: purified protein; type: biochemical, Nitrosopumilus maritimus; details: 0.2 mM acetoacetyl-CoA, 100 mM Tris-HCl pH 7.8, 30°C, reverse reaction, monomeric enzyme
[4] = substrate: NC(=O)c1ccc[n+]([C@@H]2O[C@H](COP(=O)(O)OP(=O)(O)OC[C@H]3O[C@@H](n4cnc5c(N)ncnc54)[C@H](O)[C@@H]3O)[C@@H](O)[C@H]2O)c1; experiment: purified protein; type: biochemical, Nitrosopumilus maritimus; details: 0.2 mM (S)-3-hydroxybutyryl-CoA, 100 mM Tris-HCl pH 7.8, 30°C, forward reaction, monomeric enzyme
[5] = substrate: NC(=O)c1ccc[n+]([C@@H]2O[C@H](COP(=O)(O)OP(=O)(O)OC[C@H]3O[C@@H](n4cnc5c(N)ncnc54)[C@H](OP(=O)(O)O)[C@@H]3O)[C@@H](O)[C@H]2O)c1; experiment: purified protein; type: biochemical, Nitrosopumilus maritimus; details: 0.2 mM (S)-3-hydroxybutyryl-CoA, 100 mM Tris-HCl pH 7.8, 30°C, forward reaction, monomeric enzyme
[6] = target: the molecule itself; experiment: SEC; Superdex 200 Increase (24 ml), 0.75 ml/min, 20 mM Tris-HCl pH 7.8, 150 mM KCl; native mass from a standard curve (apoferritin, alcohol dehydrogenase, BSA, carbonic anhydrase)

B1: (S)-3-hydroxybutyryl-CoA dehydrogenase Nmar_1028 (enzyme, Nitrosopumilus maritimus SCM1, UniProt A9A3J2 1-379, looked up)
chain: MAVKNITILGSGVMGHGIAQVSATAGYNVVLRDIEQGFLDKAMEKIRWSLDKLVSKEKISKEEGDSIFGRITPVVDLKEAVKDAELVIEVVPEIMDLKKKVYAELDEVAAPEVIFASNTSTLPITEIANTTSRPDKFIGIHFFNPPQLMKLVEVIPGEKTSQEITDLTKDYVKSVNKQAVLCRKDVPGFIINRLFIPMVHEACYAKDRTGATLEEIDSAVKFNLGFPMGIFELADFTGMDVIHKATVEMHLRDKKVINPHPTVEKMFDEKKLGQKSGEGYYKYSDDKYERVELSQELAQKFNPIQLVANILNNAAWLVTNGASDIEEIEKAAQLGLGLKKPLFETAKEIGIKNIVDELNKLAEEHGEFYKPDPLLTSMQ
notes: (S)-3-hydroxybutyryl-CoA dehydrogenase Nmar_1028 of Nitrosopumilus maritimus strain SCM1; gene amplified from genomic DNA from the initiation codon to after the stop codon; predicted size 44.8 kDa; No removal of the His10 tag is described; also called HBDH; source: E. coli Rosetta 2 (DE3), purified (Ni-NTA)
Km [1]: 26 ± 4 µM | Vmax [1]: 145 µmol/min/mg | kcat [1]: 108 s⁻¹ | kcat/Km [1]: 4.04e+06 M⁻¹ s⁻¹ | Km [2]: 19 ± 2 µM | Vmax [2]: 98.6 µmol/min/mg | kcat [2]: 74 s⁻¹ | kcat/Km [2]: 3.88e+06 M⁻¹ s⁻¹ | Km [3]: 16 ± 6 µM | Vmax [3]: 113 µmol/min/mg | kcat/Km [3]: 5.27e+06 M⁻¹ s⁻¹ | Km [4]: 100 ± 20 µM | Vmax [4]: 84.4 µmol/min/mg | kcat/Km [4]: 630000 M⁻¹ s⁻¹ | Km [5]: 2920 ± 630 µM | Vmax [5]: 10.1 µmol/min/mg | kcat/Km [5]: 3000 M⁻¹ s⁻¹ | stoichiometry N [6]: 2
